How the values were obtained:
c-Abl (mouse) = assay: phosphorylation enrichment, bacterial display (enrichment ratio); higher = better substrate or ligand; peptides without Tyr show the background
c-Src = assay: as above
Jak2 = Jak2 (UniProt O60674); assay: as above
Fyn = Fyn (UniProt P06241); assay: as above
Hck = Hck (UniProt P08631); assay: as above
AncSZ = assay: as above
EPHB1 = EPHB1 (UniProt P54762); assay: as above
Fes = Fes (UniProt P07332); assay: as above
FGFR1 = FGFR1 (UniProt P11362); assay: as above
Fer (mouse) = assay: as above
EPHB2 = EPHB2 (UniProt P29323); assay: as above
MERTK = MERTK (UniProt Q12866); assay: as above
FGFR3 = FGFR3 (UniProt P22607); assay: as above
SHP2-C SH2 = assay: SH2 binding enrichment of the phosphorylated peptide, bacterial display (enrichment ratio); higher = better substrate or ligand; peptides without Tyr show the background
c-Src SH2 = assay: as above
Grb2 SH2 = Grb2 SH2 (UniProt P62993); assay: as above
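For SH2 binding enrichment of the phosphorylated peptide, bacterial display in this document: peptide library displayed on the E. coli surface as eCPX fusions, selected cells deep-sequenced, score is each peptide's frequency after selection divided by its frequency in the input.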
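For phosphorylation enrichment, bacterial display in this document: 11-residue human phosphosite peptides and single-mutation variants displayed on the E. coli surface, counted by deep sequencing, each peptide's frequency after selection divided by its frequency in the unselected input library; frequency after pTyr selection over input frequency; kinase dosed for 20-30% of maximal phosphorylation in three min.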

Chain of Jak2 (O60674 whole entry, looked up): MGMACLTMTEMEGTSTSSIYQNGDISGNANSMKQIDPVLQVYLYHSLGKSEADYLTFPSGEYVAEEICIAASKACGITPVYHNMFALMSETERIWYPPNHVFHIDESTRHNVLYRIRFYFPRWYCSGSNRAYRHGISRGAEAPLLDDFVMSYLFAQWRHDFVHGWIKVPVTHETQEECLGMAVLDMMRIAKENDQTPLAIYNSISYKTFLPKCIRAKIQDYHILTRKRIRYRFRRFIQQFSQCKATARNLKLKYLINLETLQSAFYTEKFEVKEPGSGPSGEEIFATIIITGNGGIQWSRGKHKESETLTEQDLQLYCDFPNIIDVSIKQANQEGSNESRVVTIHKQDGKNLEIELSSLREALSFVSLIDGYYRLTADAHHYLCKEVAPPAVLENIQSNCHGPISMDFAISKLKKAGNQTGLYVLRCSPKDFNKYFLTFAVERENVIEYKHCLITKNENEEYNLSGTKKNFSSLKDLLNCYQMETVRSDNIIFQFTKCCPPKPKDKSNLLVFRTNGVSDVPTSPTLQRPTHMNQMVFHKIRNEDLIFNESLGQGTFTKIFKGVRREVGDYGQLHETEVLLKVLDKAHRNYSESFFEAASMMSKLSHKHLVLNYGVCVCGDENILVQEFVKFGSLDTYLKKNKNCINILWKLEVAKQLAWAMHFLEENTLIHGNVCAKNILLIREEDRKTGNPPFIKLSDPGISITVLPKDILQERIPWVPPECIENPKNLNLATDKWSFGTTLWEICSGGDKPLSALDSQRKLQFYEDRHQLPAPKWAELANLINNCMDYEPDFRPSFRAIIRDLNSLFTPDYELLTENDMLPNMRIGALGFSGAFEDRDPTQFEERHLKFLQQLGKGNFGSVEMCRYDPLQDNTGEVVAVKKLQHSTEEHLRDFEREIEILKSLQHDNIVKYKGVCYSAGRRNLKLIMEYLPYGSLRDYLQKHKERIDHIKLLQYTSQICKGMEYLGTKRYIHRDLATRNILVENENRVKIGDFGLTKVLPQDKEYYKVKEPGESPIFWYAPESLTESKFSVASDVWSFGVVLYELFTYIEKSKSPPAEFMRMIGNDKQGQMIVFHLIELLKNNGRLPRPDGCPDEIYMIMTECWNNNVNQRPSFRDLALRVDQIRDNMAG
Chain of EPHB1 (P54762 whole entry, looked up): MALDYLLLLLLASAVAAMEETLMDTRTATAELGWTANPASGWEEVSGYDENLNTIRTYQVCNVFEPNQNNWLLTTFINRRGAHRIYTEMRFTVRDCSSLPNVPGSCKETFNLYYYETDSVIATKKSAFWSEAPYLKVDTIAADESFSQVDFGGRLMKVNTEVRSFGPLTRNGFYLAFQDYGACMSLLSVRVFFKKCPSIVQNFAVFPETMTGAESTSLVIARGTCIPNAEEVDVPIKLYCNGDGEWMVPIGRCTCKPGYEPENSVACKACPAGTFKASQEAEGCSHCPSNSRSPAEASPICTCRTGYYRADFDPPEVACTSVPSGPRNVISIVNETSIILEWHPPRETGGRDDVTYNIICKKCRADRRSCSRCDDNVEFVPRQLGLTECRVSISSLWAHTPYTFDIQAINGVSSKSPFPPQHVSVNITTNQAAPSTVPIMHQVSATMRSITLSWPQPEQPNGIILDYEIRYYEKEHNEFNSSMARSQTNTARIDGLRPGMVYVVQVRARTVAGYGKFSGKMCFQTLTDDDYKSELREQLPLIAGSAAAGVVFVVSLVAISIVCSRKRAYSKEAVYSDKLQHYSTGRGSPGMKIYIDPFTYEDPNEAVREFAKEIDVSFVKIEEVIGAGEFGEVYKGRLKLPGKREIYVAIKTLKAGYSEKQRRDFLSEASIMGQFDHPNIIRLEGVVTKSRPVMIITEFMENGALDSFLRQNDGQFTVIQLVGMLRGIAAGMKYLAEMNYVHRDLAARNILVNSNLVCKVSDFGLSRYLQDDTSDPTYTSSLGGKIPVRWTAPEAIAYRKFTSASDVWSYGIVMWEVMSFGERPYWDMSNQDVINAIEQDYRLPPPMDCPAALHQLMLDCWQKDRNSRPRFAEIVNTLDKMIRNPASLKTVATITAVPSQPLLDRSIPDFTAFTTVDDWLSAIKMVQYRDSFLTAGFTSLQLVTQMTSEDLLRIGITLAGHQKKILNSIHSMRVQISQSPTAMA
Chain of Hck (P08631 whole entry, looked up): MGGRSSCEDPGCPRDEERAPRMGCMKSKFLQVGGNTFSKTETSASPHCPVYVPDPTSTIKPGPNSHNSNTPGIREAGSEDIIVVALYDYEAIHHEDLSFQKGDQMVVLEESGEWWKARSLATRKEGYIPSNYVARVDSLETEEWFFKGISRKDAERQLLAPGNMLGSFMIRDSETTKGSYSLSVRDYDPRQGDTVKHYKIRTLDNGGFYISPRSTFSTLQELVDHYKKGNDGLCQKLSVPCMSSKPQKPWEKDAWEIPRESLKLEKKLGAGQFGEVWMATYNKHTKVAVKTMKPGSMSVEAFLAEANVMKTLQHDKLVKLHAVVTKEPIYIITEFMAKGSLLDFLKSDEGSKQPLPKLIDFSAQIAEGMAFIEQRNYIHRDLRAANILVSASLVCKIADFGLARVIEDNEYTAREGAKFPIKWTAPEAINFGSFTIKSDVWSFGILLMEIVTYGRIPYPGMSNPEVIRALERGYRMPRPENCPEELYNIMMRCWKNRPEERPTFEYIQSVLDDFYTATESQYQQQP
Chain of EPHB2 (P29323 whole entry, looked up): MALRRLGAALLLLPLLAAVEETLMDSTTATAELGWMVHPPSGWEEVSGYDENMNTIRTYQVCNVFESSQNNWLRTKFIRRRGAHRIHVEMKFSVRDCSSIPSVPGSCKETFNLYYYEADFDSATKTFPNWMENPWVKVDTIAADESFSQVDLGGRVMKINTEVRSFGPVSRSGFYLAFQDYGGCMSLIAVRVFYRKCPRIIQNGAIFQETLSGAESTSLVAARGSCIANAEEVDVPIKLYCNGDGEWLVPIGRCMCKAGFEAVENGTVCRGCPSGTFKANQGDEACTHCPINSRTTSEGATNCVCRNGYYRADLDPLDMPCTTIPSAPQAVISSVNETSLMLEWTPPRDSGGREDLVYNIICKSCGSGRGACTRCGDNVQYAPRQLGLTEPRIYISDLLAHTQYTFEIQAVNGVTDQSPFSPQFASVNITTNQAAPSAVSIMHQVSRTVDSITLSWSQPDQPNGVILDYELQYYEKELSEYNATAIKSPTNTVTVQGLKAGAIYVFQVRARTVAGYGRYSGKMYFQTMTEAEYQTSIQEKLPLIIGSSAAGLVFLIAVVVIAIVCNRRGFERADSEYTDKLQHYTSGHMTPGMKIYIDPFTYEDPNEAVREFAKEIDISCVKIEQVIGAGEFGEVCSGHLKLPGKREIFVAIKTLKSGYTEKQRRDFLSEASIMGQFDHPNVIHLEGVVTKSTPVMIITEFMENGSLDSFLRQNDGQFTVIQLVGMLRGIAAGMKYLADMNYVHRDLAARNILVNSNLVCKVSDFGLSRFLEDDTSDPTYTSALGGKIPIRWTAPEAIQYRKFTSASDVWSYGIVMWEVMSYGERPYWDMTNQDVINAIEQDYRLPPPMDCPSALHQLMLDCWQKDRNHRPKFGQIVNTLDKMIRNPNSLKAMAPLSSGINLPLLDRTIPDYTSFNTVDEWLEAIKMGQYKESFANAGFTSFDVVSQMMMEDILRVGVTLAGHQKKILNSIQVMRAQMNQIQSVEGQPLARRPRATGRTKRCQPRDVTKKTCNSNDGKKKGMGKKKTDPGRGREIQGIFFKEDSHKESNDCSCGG
Chain of Fyn (P06241 whole entry, looked up): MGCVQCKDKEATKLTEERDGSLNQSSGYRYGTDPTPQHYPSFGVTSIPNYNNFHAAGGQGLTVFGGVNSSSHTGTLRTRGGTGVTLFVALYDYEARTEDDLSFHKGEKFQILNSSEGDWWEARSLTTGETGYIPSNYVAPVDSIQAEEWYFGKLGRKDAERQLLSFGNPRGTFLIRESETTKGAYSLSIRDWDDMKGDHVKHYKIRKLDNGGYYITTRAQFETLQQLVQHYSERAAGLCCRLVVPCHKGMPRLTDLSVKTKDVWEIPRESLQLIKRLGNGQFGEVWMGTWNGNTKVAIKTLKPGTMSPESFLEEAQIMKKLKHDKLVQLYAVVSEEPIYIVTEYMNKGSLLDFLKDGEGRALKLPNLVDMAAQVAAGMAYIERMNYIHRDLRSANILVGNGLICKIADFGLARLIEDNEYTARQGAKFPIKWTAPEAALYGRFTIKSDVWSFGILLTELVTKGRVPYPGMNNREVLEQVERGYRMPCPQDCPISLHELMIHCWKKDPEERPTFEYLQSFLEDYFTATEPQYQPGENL
Chain of FGFR3 (P22607 whole entry, looked up): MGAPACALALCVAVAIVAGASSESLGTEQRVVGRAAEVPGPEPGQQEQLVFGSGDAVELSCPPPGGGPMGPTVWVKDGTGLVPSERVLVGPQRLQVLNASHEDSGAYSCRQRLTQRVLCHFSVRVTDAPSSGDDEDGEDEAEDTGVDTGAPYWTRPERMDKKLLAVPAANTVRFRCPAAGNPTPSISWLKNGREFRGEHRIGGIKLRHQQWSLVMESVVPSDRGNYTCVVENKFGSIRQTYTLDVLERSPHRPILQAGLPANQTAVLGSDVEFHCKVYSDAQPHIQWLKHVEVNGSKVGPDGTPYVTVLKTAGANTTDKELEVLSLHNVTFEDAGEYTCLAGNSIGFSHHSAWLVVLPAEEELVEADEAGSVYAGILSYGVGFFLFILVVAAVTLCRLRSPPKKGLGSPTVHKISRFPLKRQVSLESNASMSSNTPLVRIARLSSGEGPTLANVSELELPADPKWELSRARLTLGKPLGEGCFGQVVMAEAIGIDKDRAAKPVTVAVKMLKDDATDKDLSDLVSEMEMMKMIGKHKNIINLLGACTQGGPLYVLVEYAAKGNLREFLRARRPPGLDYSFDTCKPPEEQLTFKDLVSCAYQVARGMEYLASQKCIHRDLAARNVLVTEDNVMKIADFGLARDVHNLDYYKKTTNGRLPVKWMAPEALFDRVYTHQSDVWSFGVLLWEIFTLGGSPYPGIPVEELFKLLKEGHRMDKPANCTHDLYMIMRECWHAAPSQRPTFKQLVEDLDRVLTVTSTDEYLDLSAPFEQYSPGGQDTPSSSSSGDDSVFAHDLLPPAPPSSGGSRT

Sequence | phosphorylation enrichment (c-Abl (mouse)) | phosphorylation enrichment (c-Src) | phosphorylation enrichment (Jak2) | phosphorylation enrichment (Fyn) | phosphorylation enrichment (Hck) | phosphorylation enrichment (AncSZ) | phosphorylation enrichment (EPHB1) | phosphorylation enrichment (Fes) | phosphorylation enrichment (FGFR1) | phosphorylation enrichment (Fer (mouse)) | phosphorylation enrichment (EPHB2) | phosphorylation enrichment (MERTK) | phosphorylation enrichment (FGFR3) | SH2 binding enrichment (SHP2-C SH2) | SH2 binding enrichment (c-Src SH2) | SH2 binding enrichment (Grb2 SH2)
QNTADYYDLYG [PTPN11_Y62_G60A] | 0.722 | 4.18 | 2.14 | 4.14 | 3.94 | 2.62 | 12.4 | 1.02 | 15.3 | 0.762 | 11.9 | 1.68 | 14.1 | 0.739 | 0.7 | 1.25
QNTGFYFDLFG [PTPN11_Y62_D61Y_YF] | 1.36 | 0.681 | 2.66 | 0.668 | 0.742 | 1.89 | 1.6 | 2.16 | 3.04 | 1.12 | 1.25 | 2.75 | 2.42 | 0.657 | 0.663 | 1.19
QNVADYMRYLM [RPL5_Y207] | 0.682 | 0.684 | 0.994 | 0.723 | 0.736 | 1.49 | 1.98 | 1.96 | 1.07 | 0.736 | 1.16 | 0.523 | 0.893 | 1.02 | 0.628 | 1.12
QPGTDYKIFLF [FN1_Y1970_YF] | 1.4 | 0.674 | 1.72 | 0.591 | 0.924 | 2.09 | 1.05 | 2.44 | 1.17 | 0.899 | 0.848 | 0.673 | 1.21 | 0.548 | 0.4 | 0.609
QQLVAYFSKHT [SRC_Y232_A237T_YF] | 0.646 | 0.513 | 1.75 | 0.629 | 0.699 | 0.898 | 0.676 | 1.09 | 0.562 | 0.595 | 0.724 | 0.382 | 0.942 | 1.08 | 0.808 | 1.01
QRDSSYYWEIE [RAF1_Y340] | 0.744 | 1.95 | 1.13 | 2.12 | 0.981 | 1.3 | 2.77 | 1.09 | 3.91 | 0.536 | 1.14 | 3.5 | 3.03 | 0.797 | 10.6 | 0.762
QRMGTYGVRAA [ICAM2_Y260] | 0.637 | 1.58 | 0.983 | 2.06 | 3.44 | 1.26 | 0.685 | 1.14 | 0.754 | 0.852 | 0.657 | 0.618 | 0.702 | 0.881 | 0.724 | 1
QRRYVYYYSYL [PTEN_Y176] | 1.09 | 4.21 | 5.95 | 3.65 | 3.63 | 1.88 | 1.85 | 1.32 | 6.01 | 0.987 | 1.83 | 9.64 | 4.17 | 3.88 | 1 | 1.07
QSAGQYSSQGL [TNNI3K_Y788] | 0.777 | 0.418 | 0.636 | 0.459 | 0.855 | 0.703 | 0.95 | 1.15 | 0.387 | 0.622 | 0.414 | 0.584 | 0.542 | 0.924 | 0.369 | 0.944
QSLEPYTKQQL [STAT3_Y640_V637L] | 0.498 | 0.309 | 0.48 | 0.353 | 0.459 | 0.537 | 0.497 | 0.745 | 0.452 | 0.424 | 0.371 | 0.304 | 0.603 | 0.558 | 0.388 | 0.679
QSSALYEDRFL [ASS1_Y83_YF] | 1.08 | 2.02 | 1.23 | 1.48 | 6.48 | 1.19 | 4.13 | 1.53 | 0.781 | 10.1 | 1.86 | 1.24 | 1.01 | 0.471 | 0.65 | 0.835
QTLEAYIRCNK [SPAST_Y604_W607C] | 0.887 | 0.372 | 1.44 | 0.438 | 0.951 | 1.12 | 0.906 | 1.36 | 0.559 | 0.452 | 0.738 | 0.624 | 1.1 | 0.626 | 0.474 | 0.76
QTWKTYVRQQQ [SFI1_Y164] | 0.673 | 0.37 | 0.766 | 0.526 | 0.402 | 0.914 | 0.524 | 1.02 | 0.411 | 0.446 | 0.685 | 0.456 | 0.738 | 0.96 | 0.756 | 0.95
RAFSWYQHQRA [NDST1_Y714_YF] | 1.09 | 0.489 | 1.25 | 0.769 | 0.611 | 1.54 | 0.74 | 1.72 | 0.763 | 0.794 | 0.855 | 0.424 | 1 | 1.23 | 0.934 | 1.23
RAVLLYEFVGK [NATD1_Y45_YF] | 1.54 | 5.67 | 1.56 | 5.5 | 8.33 | 2.71 | 23.8 | 3.12 | 2.12 | 14.9 | 27.1 | 12.7 | 2.29 | 1.5 | 0.972 | 1.57
RCFVFYFSFLL [PTEN_Y177_R173C_YF] | 0.732 | 0.591 | 0.821 | 0.355 | 0.426 | 0.59 | 0.353 | 0.626 | 0.506 | 0.432 | 0.434 | 0.38 | 0.613 | 1.78 | 1.27 | 1.97
RDLTHYLMKIL [ACTG1_Y188_D187H] | 0.692 | 0.463 | 0.477 | 0.756 | 1.06 | 1.27 | 1.05 | 1.12 | 0.665 | 0.64 | 0.804 | 0.583 | 0.85 | 1.54 | 1.6 | 1.64

Source: the supplement of paper PMC10065799, “High-throughput profiling of sequence recognition by tyrosine kinases and SH2 domains using bacterial peptide display” (eLife, 2023)
